According to patent US20260008864A1 (CITY OF HOPE, published 2026):

B1: 3-38BN001 (5F1K) (bispecific antibody)
chain: EVQLVESGGGLVQPGRSLRLSCAASGFTFDDYTMHWVRQAPGKGLEWVSDISWNSGSIGYADSVKGRFTVSRDNAKNSLYLQMNSLRGEDTAIYYCAKDMSGYGHYGKYGMDVWGQGTTVTVSSASTKGPSVFPLAPSSKSTSGGTAALGCLVKDYFPEPVTVSWNSGALTSGVHTFPAVLQSSGLYSLSSVVTVPSSSLGTQTYICNVNHKPSNTKVDKKVEPKSCAASGGAGSDVQLQESGGGLVQAGGSLRLSCTGSGRTFRNYPMAWFRQAPGKEREFVAGITWVGASTLYADFAKGRFTISRDNAKNTVYLQMNSLKPEDTAVYSCAAGRGIVAGRIPAEYADWGQGTQVTVSSGAVPLSLYGAGGDIQMTQSPILLSASVGDRVTITCRASQSIRSYLNWYQQRTNGSPRLLIYAASSLQSGVPSRFSGSGSGTDFTLTINSLQPDDEADYYCQQTYSNPPITFGAGTRLEIKRTVAAPSVFIFPPSDEQLKSGTASVVCLLNNFYPREAKVQWKVDNALQSGNSQESVTEQDSKDSTYSLSSTLTLSKADYEKHKVYACEVTHQGLSSPVTKSFNRGEC
notes: Single-chain anti-CD3 Fab heavy chain - linker L1 - anti-CD38 nanobody 5F1K - cleavable linker L2 (MMP-9 site) - anti-CD3 light chain; also called 3-38N001; CD3HC-L1-CD38nanobody (5F1K)-L2-CD3LC
B2: 3-38BN004 (5F1K) (bispecific antibody)
chain: EVQLVESGGGLVQPGRSLRLSCAASGFTFDDYTMHWVRQAPGKGLEWVSDISWNSGSIGYADSVKGRFTVSRDNAKNSLYLQMNSLRGEDTAIYYCAKDMSGYGHYGKYGMDVWGQGTTVTVSSASTKGPSVFPLAPSSKSTSGGTAALGCLVKDYFPEPVTVSWNSGALTSGVHTFPAVLQSSGLYSLSSVVTVPSSSLGTQTYICNVNHKPSNTKVDKKVEPKSCAASGGAGSDVQLQESGGGLVQAGGSLRLSCTGSGRTFRNYPMAWFRQAPGKEREFVAGITWVGASTLYADFAKGRFTISRDNAKNTVYLQMNSLKPEDTAVYSCAAGRGIVAGRIPAEYADWGQGTQVTVSSSSGASASAAGGSDIQMTQSPILLSASVGDRVTITCRASQSIRSYLNWYQQRTNGSPRLLIYAASSLQSGVPSRFSGSGSGTDFTLTINSLQPDDEADYYCQQTYSNPPITFGAGTRLEIKRTVAAPSVFIFPPSDEQLKSGTASVVCLLNNFYPREAKVQWKVDNALQSGNSQESVTEQDSKDSTYSLSSTLTLSKADYEKHKVYACEVTHQGLSSPVTKSFNRGEC
notes: also called 3-38N004; CD38-CD3 BIONIC
B3: 3-38BN002 (5F1O) (bispecific antibody)
chain: EVQLVESGGGLVQPGRSLRLSCAASGFTFDDYTMHWVRQAPGKGLEWVSDISWNSGSIGYADSVKGRFTVSRDNAKNSLYLQMNSLRGEDTAIYYCAKDMSGYGHYGKYGMDVWGQGTTVTVSSASTKGPSVFPLAPSSKSTSGGTAALGCLVKDYFPEPVTVSWNSGALTSGVHTFPAVLQSSGLYSLSSVVTVPSSSLGTQTYICNVNHKPSNTKVDKKVEPKSCAASGGAGSDVQLQESGGGLVQAGHSLRLSCVGSGSRFDNYAMGWFRQAPGKEREFVAAISWSSGTTRYLDTVKGRFTISRDNAKSTVYLQMNSLKPEDTAVYYCAARYQPRYYDSGDMDGYEYDNWGQGTQVTVSSGAVPLSLYGAGGDIQMTQSPILLSASVGDRVTITCRASQSIRSYLNWYQQRTNGSPRLLIYAASSLQSGVPSRFSGSGSGTDFTLTINSLQPDDEADYYCQQTYSNPPITFGAGTRLEIKRTVAAPSVFIFPPSDEQLKSGTASVVCLLNNFYPREAKVQWKVDNALQSGNSQESVTEQDSKDSTYSLSSTLTLSKADYEKHKVYACEVTHQGLSSPVTKSFNRGEC
notes: Single chain with cleavable linker L2 (MMP-9 site); also called 38N002; CD3HC-L1-CD38nanobody (5F1O)-L2-CD3LC
B4: 3-38BN005 (5F1O) (bispecific antibody)
chain: EVQLVESGGGLVQPGRSLRLSCAASGFTFDDYTMHWVRQAPGKGLEWVSDISWNSGSIGYADSVKGRFTVSRDNAKNSLYLQMNSLRGEDTAIYYCAKDMSGYGHYGKYGMDVWGQGTTVTVSSASTKGPSVFPLAPSSKSTSGGTAALGCLVKDYFPEPVTVSWNSGALTSGVHTFPAVLQSSGLYSLSSVVTVPSSSLGTQTYICNVNHKPSNTKVDKKVEPKSCAASGGAGSDVQLQESGGGLVQAGHSLRLSCVGSGSRFDNYAMGWFRQAPGKEREFVAAISWSSGTTRYLDTVKGRFTISRDNAKSTVYLQMNSLKPEDTAVYYCAARYQPRYYDSGDMDGYEYDNWGQGTQVTVSSSSGASASAAGGSDIQMTQSPILLSASVGDRVTITCRASQSIRSYLNWYQQRTNGSPRLLIYAASSLQSGVPSRFSGSGSGTDFTLTINSLQPDDEADYYCQQTYSNPPITFGAGTRLEIKRTVAAPSVFIFPPSDEQLKSGTASVVCLLNNFYPREAKVQWKVDNALQSGNSQESVTEQDSKDSTYSLSSTLTLSKADYEKHKVYACEVTHQGLSSPVTKSFNRGEC
notes: Single chain with non-cleavable linker L2; also called CD3HC-L1-CD38nanobody (5F1O)-L2-CD3LC
B5: 3-38BN003 (5F21) (bispecific antibody)
chain: EVQLVESGGGLVQPGRSLRLSCAASGFTFDDYTMHWVRQAPGKGLEWVSDISWNSGSIGYADSVKGRFTVSRDNAKNSLYLQMNSLRGEDTAIYYCAKDMSGYGHYGKYGMDVWGQGTTVTVSSASTKGPSVFPLAPSSKSTSGGTAALGCLVKDYFPEPVTVSWNSGALTSGVHTFPAVLQSSGLYSLSSVVTVPSSSLGTQTYICNVNHKPSNTKVDKKVEPKSCAASGGAGSDVQLQESGGGSVQAGGSLTLSCTASGLLFRLASMGWYRQAPGKERELIATITVGGKTNYKDSVQGRFIITRDNTGDNTKSTVTLQMNRLKPEDTAVYYCNTASPAVGADTWGQGTRVTVSSGAVPLSLYGAGGDIQMTQSPILLSASVGDRVTITCRASQSIRSYLNWYQQRTNGSPRLLIYAASSLQSGVPSRFSGSGSGTDFTLTINSLQPDDEADYYCQQTYSNPPITFGAGTRLEIKRTVAAPSVFIFPPSDEQLKSGTASVVCLLNNFYPREAKVQWKVDNALQSGNSQESVTEQDSKDSTYSLSSTLTLSKADYEKHKVYACEVTHQGLSSPVTKSFNRGEC
notes: Single chain with cleavable linker L2 (MMP-9 site); also called 38N003; CD3HC-L1-CD38nanobody (5F21)-L2-CD3LC
B6: 3-38BN006 (5F21) (bispecific antibody)
chain: EVQLVESGGGLVQPGRSLRLSCAASGFTFDDYTMHWVRQAPGKGLEWVSDISWNSGSIGYADSVKGRFTVSRDNAKNSLYLQMNSLRGEDTAIYYCAKDMSGYGHYGKYGMDVWGQGTTVTVSSASTKGPSVFPLAPSSKSTSGGTAALGCLVKDYFPEPVTVSWNSGALTSGVHTFPAVLQSSGLYSLSSVVTVPSSSLGTQTYICNVNHKPSNTKVDKKVEPKSCAASGGAGSDVQLQESGGGSVQAGGSLTLSCTASGLLFRLASMGWYRQAPGKERELIATITVGGKTNYKDSVQGRFIITRDNTGDNTKSTVTLQMNRLKPEDTAVYYCNTASPAVGADTWGQGTRVTVSSSSGASASAAGGSDIQMTQSPILLSASVGDRVTITCRASQSIRSYLNWYQQRTNGSPRLLIYAASSLQSGVPSRFSGSGSGTDFTLTINSLQPDDEADYYCQQTYSNPPITFGAGTRLEIKRTVAAPSVFIFPPSDEQLKSGTASVVCLLNNFYPREAKVQWKVDNALQSGNSQESVTEQDSKDSTYSLSSTLTLSKADYEKHKVYACEVTHQGLSSPVTKSFNRGEC
notes: Single chain with non-cleavable linker L2; also called 38N006; CD3HC-L1-CD38nanobody (5F21)-L2-CD3LC

Tests used:
CD38-Fc [1] = biological target: T1, CD38-Fc (UniProt P28907 43-300); assay: SPR, CD38-Fc immobilised on CM5 chip, 25 C
T1 construct: Immobilised on a CM5 chip at 200 RU; also called CD38 antigen target; not shown: Fc part
Experimental: (§1) CD38-Fc was immobilized on a CM5 sensor chip at 200 response units (RU) using ECD/NHS coupling. […] These bispecific compounds include a protease cleavage site within one of the linker regions. […] All samples were prepared at concentrations of 30 nM, 10 nM, 3 nM or 1 nM in HBS-EP+ runner buffer at 25° C.

[2] = biological target: T2, CD38 on cells (Nomo-1, SKM-1, MM1S, THP-1, HL60, PBMC, primary patient samples) (UniProt P28907 1-300); assay: flow cytometry, PBMC treated 1 h with 10 ug/mL of the binder, dot plot CD38-PE against CD3-V450; the C-IgG panel prints 48%; CD3+CD38+ quadrant of this panel: 0%; the filing reads the figure as binding to CD3 and CD38
T2 construct: whole, on cells
Experimental: (§2) The CD3-CD38 compounds were then incubated with PBMCs to assess binding to CD3 and CD38 antigens presented on effector cells.

[3] = biological target: T3, CD3 on cells (PBMC, primary patient samples); assay: flow cytometry, PBMC treated 1 h with 10 ug/mL of the binder, dot plot CD38-PE against CD3-V450; the C-IgG panel prints 25%; the filing reads the figure as binding to CD3 and CD38
T3 construct: whole, on cells
Experimental: as §2

CD3-Fc = biological target: T4, CD3-Fc; assay: SPR, CD3-Fc immobilised on CM5 chip, 25 C
T4 construct: Immobilised on a CM5 chip at 1000 RU; also called CD3 target
Experimental: CD3-Fc was immobilized on a CM5 sensor chip at 1000 response units (RU) using ECD/NHS coupling methods. […] All samples were prepared at concentrations of 30 nM, 10 nM, 3 nM or 1 nM in HBS-EP+ runner buffer at 25° C.

CD38-Fc [4] = biological target: T1, CD38-Fc; assay: SPR, CD38-Fc immobilised on CM5 chip, 25 C; ** = kd outside of detectable limits
Experimental: as §1

Binder	Kd (CD38-Fc [1]) [nM]	koff (CD38-Fc [1]) [s⁻¹]	kon (CD38-Fc [1]) [M⁻¹ s⁻¹]	CD38+ (% of PBMC in the CD38-PE positive, CD3-V450 negative quadrant) [2] [%]	CD3 (% of PBMC in the CD3-V450 positive, CD38-PE negative quadrant) [3] [%]	Kd (CD3-Fc) [nM]	koff (CD3-Fc) [s⁻¹]	kon (CD3-Fc) [M⁻¹ s⁻¹]	koff (CD38-Fc [4]) [s⁻¹]
B1	0.946	0.000696	735000	1	13				
B2	0.962	0.000711	740000	1	11				
B3	0.772	0.000127	165000		12	530	0.0227	42900	
B4			590000		11				< 1e-05
B5	0.478	6.84e-05	143000	15	12	522	0.0525	101000	
B6	0.473	7.33e-05	155000	11	12				
